# Laboratory results reported in patent US20090047262.
# Columns and labels:
# [1] = test system: mutant f:CIITA1(S357A) protein (FLAG epitope-tagged CIITA isoform 1 with serine 357 changed to alanine)
# [2] = test system: T1, FLAG epitope-tagged CIITA IF1 protein (f:CIITA1)
# T1 sequence: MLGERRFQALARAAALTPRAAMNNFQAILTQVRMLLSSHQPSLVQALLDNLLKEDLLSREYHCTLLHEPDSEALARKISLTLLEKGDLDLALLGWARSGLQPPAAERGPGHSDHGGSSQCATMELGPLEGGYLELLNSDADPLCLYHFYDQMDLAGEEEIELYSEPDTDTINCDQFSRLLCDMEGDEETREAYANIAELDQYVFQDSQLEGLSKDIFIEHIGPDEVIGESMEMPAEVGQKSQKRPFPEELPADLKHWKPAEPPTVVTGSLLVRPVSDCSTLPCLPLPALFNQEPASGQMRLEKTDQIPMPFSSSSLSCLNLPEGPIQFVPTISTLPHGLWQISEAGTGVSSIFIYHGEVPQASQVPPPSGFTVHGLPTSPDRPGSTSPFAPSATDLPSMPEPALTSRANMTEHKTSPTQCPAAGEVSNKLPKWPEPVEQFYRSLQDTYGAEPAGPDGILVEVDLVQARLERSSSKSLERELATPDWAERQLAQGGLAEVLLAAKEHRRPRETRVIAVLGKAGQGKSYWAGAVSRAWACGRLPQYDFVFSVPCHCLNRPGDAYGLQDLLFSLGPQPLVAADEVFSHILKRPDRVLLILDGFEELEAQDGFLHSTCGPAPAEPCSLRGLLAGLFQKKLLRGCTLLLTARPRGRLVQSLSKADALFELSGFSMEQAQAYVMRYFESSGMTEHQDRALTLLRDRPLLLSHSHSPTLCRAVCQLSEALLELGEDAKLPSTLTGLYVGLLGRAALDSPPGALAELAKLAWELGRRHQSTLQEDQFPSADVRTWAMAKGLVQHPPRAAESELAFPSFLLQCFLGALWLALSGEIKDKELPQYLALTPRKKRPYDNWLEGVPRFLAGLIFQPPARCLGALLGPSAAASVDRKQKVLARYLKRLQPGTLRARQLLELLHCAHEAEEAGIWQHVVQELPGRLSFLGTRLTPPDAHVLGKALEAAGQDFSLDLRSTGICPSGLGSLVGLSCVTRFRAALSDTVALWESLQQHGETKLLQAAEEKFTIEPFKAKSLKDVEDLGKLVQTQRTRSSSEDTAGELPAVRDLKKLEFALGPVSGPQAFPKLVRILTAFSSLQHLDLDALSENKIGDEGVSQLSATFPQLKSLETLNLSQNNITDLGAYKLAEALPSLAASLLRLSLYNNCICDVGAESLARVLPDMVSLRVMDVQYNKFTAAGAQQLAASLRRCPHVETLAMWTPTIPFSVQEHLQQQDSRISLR
substance,measurement,setting,value
Erk1/2 kinase,"in vitro kinase assay, appearance of the upper (phosphorylated) band",[1],"Erk1/2 did not phosphorylate the mutant f:CIITA1(S357A) protein, which was confirmed by the absence of the upper band"
same,"in vitro kinase assay, appearance of the upper (phosphorylated) band",[2],"as indicated by the appearance of the upper band, Erk1/2 phosphorylated f:CIITA1 protein"
